From publication PMC5389471 (Nucleic Acids Research, 2016)
One block for each molecule: values may come before it.

Legend:
[1] = target: T1, AibR (Myxococcus xanthus, UniProt Q1D4I5); assay: MST Kd with Cy5-labelled AibR; format: binding
T1 sequence (Q1D4I5 1-228): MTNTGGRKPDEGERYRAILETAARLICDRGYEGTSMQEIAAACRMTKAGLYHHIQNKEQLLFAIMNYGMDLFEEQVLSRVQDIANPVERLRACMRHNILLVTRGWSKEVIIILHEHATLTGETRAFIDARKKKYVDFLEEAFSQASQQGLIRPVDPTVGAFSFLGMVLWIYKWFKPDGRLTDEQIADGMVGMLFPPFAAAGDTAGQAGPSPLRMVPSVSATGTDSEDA

[2] = target: AibR, TetR-like transcriptional regulator of the AIB-operon (Myxococcus xanthus); assay: SEC
[3] = target: AibR, TetR-like transcriptional regulator of the AIB-operon (Myxococcus xanthus); assay: crystal structure
[4] = target: T2, AibR (UniProt Q1D4I5 1-228); assay: EMSA
T2 sequence: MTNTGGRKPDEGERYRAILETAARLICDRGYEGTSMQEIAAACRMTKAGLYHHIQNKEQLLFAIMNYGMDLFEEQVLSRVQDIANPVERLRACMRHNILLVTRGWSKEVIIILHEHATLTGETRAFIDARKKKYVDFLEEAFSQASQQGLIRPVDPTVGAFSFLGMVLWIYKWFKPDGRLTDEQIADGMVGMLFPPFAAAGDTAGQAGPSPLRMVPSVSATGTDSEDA

[5] = target: T2, AibR; assay: MST
[6] = target: T2, AibR; assay: crystal structure

Kd [1]: 5.8 ± 1.51 µM
Molecule: CC(C)=CC(=O)SCCNC(=O)CCNC(=O)[C@H](O)C(C)(C)COP(=O)(O)OP(=O)(O)OC[C@H]1O[C@@H](n2cnc3c(N)ncnc32)[C@H](O)[C@@H]1OP(=O)(O)O [3,3-dimethylacrylyl coenzyme A]

stoichiometry N [2]: 2
stoichiometry N [3]: 2
Molecule: AibR, TetR-like transcriptional regulator of the AIB-operon (natural protein)

B1: 3aibR12 (G12T) (dsDNA)
DNA 1: CGCTGCTACCTACCGGTCTGTAGGTCTCCA
DNA 2: TCATCCGCGCCATGGAGACCTACAGACCGGTAGGTAGCAGCG
binding result [4]: no binding

B2: Cy5 21 bp operator (dsDNA)
DNA 1: GCTACCTACCGGTCGGTAGGT
DNA 2: ACCTACCGACCGGTAGGTAGC
Kd [5]: 2300 ± 850 nM

B3: 16-bp palindrome (nt 2-17, G9A) (dsDNA)
DNA 1: CCTACCGATCGGTAGG
DNA 2: CCTACCGATCGGTAGG
binding result [6]: binds

B4: P3791 (dsDNA)
DNA 1: CCCCTGCCCAACCTACCGGTCGGACGGTTCCTAGCGGG
DNA 2: TCATCCGCGCCACCCGCTAGGAACCGTCCGACCGGTAGGTTGGGCAGGGG
binding result [4]: binds

B5: aibR-Cy5 40 bp (dsDNA)
DNA 1: CCGCGTCGGGCGCTGCTACCTACCGGTCGGTAGGTCTCCA
DNA 2: TGGAGACCTACCGACCGGTAGGTAGCAGCGCCCGACGCGG
Kd [4]: 233 ± 20 nM

B6: aibR8 (dsDNA)
DNA 1: CCGCGTCGGGCGCTGCTACCTACCGGTCGGTAGGTCTCCA
DNA 2: TCATCCGCGCCATGGAGACCTACCGACCGGTAGGTAGCAGCGCCCGACGCGG
binding result [4]: binds
